The series in a line: soluble on expression in E. coli; label from the status in PepcDB or PDB records.
In the case of “MAHHHHHHMNYAAVINGPFSSNNGNNHYSRLGYTPNGYGPQPNTTEQNPQMVPYQTFNSAAGQPVNVYQQIPPTSASRDPRTNIHIGSKLFVGQVPAMTTEEQLRPVFEPYGELLEVKIMRDPLGRSKGSAWVRYETNEMAMNAINALHEKHTVPPQTNPLRVQFATPNSVRHQQLQARYAVELKVPMNQYNFGGQMGGGTQQSGMVMLRSGASPNVVPPISANVGGRYMSAPFGGGPMESSSIMSGPYTSSANCFDGVNSSGNRRDLYSPLEQPQGTAPQLYQQQQQQQRGGFSSPVVTPPSVYNQASSTRQPTARNNNTKSGGGISMGSFESGHGMVNPNSNGAPTMANEMSTLDAGIALWEARNNNGLQGQEPREAAARVRSGERKEE”, the “soluble on expression in E. coli” value is reported as “not soluble”. The same measure for “SNAEQVRQAGIDDIGGILELIHPLEEQGILVRRSREQLEQEIGKFTIIEKDGLIIGCAALYPYSEERKAEMACVAIHPDYRDGNRGLLLLNYMKHRSKSENINQIFVLTTHSLHWFREQGFYEVGVDYLPGAKQGLYNFQRKSKILALDL”: “soluble”. For “MSRNPFDDDYRPSAASSTMPVKSYTTMGHYSGEDEADYYEREIEKTLQESLDSTERSRRHLENSEKIGTSTAQQLLEQREKLENTEKNLDEIHRTTQMTQRNLNSLKSFFGGMFKNKFTKKPQEPTETPTVPQSKSASRLSETATNLSSGGGSATFSGPSGQRTLTESSRSAIKGTRWEAMDNQIDENLDMMSANLRNLQRLGADLGKEVDSQNEMLDRIQYKAERNDGIVRDQDKQMQKILGTGASTSQTTAESLTPSMDTSTKMSLMMKATSLWK”, the “soluble on expression in E. coli” value is listed as “not soluble”. The same measure for “MYNVMITGAGKIGSLIACLLADSGSYQVHLADLEFNGSDVTRLLTALPEIKTVALDVKDEQSTQAYLQKHNIIAVISSLPYFLNTHVAKAAKAAKAHYFDLTEDTSVTEAVKAIAQNAETAFVPQCGLAPGFISIAANSLMQEFEKCHHARLRVGALPQRANNALHYSLTWSTDG”: “not soluble”. The same measure for “MSQLNDSDIILFEYNFHYQNIRSKNTLDIAFGIDRNFLFGCGVAIASILLNNREISCEFHVFTDYISDKDKLYFSDLAKQYNSRINIYVINCDKLKSLPSTKNWTYATYFRFIIADYFYHKHEKILYLDADIACKGSIKELLDYQFSTNEIAAVVAERDVEWWQNRASVLTTPQLASGYFNAGFLLINIDEWNLNNISSKAIEMLRDPDWVSKITHLDQDVLNVLLNGKVKFISEKYNTRYSINYELKDKVDNPVNDDTVFIHYVGPTKPWHEWADYPVSRSFLIAKAASPWSKEDLLKPVNSNQYRYCAKHKFKQKHYMAGIFNYLKYYKEKCF”: “not soluble”; for “EVQLQQSGAELVRPGALVKLSCKASGFNIKDYYMHWVKQRPEQGLELIGWIDPENGNTIYDPKFQDKASITADTSSNTAYLQLSSLTSEDTAVYYCARDTAAYFDYWGQGTTLTVSSAKTTPPSVYPLAPGSAAQTNSMVTLGCLVKGYFPEPVTVTWNSGSLSSGVHTFPAVLQSDLYTLSSSVTVPSSTWPSETVTCNVAHPASSTKVDKKKIP”: “soluble”; for “MTVLSPSLPHAAGIDAALVENPWLGLRRSGRYFQNAETEALFARALGYARAGVCVHLAGPAGLGKTTLALRIAQALGRPVAFMTGNEWLGSRDFIGGEIGQTVTSVVDRYIQSVRRTEQSARIDWKESILGQAMRCGQTFIYDEFTRASPEANAALLSVLEEGVLVSTDGASRHQYIEAHPDFRVLLTSNPHEYQGVKAAPDALIDRMVTLRLEEPSAPTLAGIVALRSGLDPATARRIVDLILSVQRSGEMQAPPSMRTAILVARLAAPLRLAGRLSDAALAEIAADVLRGRGLEADAAAFEAKLAAPTPGETARLEHHHHHH”: “not soluble”. As for “MAHHHHHHMLQRSLARLCAAAQRQGNKALAAEGRSFALVNREVTAIKEHIQSLVTNTNNEVLDHAGKYVLAAGGKLMRPALVVLMAHAMLPLDVSAHLLEEPIGSLDEVTPGTILPFLRLAEVTELIHTASLLHDDVIDNTDTRRGRPALHKVYDAKRAVLAGDYMLARASFYIATLQVPRIVILMTTALEELTSGELMQMDGCFDIPRYEQKSFCKTASLIANSLASTAVLAGPGNEALEQTAFDFGKHLGIAFQILDDCLDITGDEKMLGKPKLVDMKEGIATIPVLLVARRNAKVAEMVCRRFAEPGDAEFCLEAVEKEGAVAEAMHRADEHCRLGLESLHKLHHSPARDALESALSMVMNRKS”, the entry is “not soluble”; as for “MWQPATERLQVTYLGKVSTTGMQFLSGCTEKPVIELWKKHTLAREDVFPANALLEIRPFQVWLHHLDHKGEATVHMDTFQVARIAYCTADHNVSPNIFAWVYREINDDLSYQMDCHAVECESKLEAKKLAHAMMEAFRKTFHSMKSDGRIHSNSSSEEVSQELESDDG”, “soluble”. On to “MAHHHHHHMWRCGMMPRTRVLRFVWKQSYRDLLPPAAASAYVCGQLRWCDSCDGGGVPAVLESPSDAAGVYSFFSQSTASAVRALRDVTRSAHSLSITDRRLALDGLAVLLRENADLLASADALVTGMCLRDARRSLDAALNFILFCEQRLRTPTAAATTAVIMKDAASVDAEEVLHSFGCGGANICGDSHSVSTLTGKSSVALCVTAANYPLQWGMETVATALLRGSAAVWLPSLDTPLSALWLMHLLHRSNKNVVADSRGAVNIILCRADDVVAAFSRQQESGLSIVGLKNGFRDHQLSRNHQAHGIPSAISHGSISCITRWYHRVMKPSLAVVGSGHHHTETMAVRLDASRVAALICQHAFHGNGRMLYALHIAFVPKQDVLPVLQSVVQYVRNLRLGHSLDPSVNMGPLPGAAHMAAMKETVEAAVCCGDFKLQHVCGGFDVAMPAGFFCLPCAFYATVANVTPAGTEMSIRVLCETTARLRFGLDRLGGGPFVVVCGYDPPQQREALEVVLREKEQYVLHYW”, for which the “soluble on expression in E. coli” value was “not soluble”. The same measure for “MGSDKIHHHHHHMAARLREFRRAIGDPDREEFARSIGVSKTTLASYERGESEPTASVLFAYREKHGADVLWLVGGEGEMRGSQLSSAAVAERDFVLMPQYDVCASAGTGRLPVNQMPTSETAFERKFLRDLGGAPDHCFLMWSTGDSMLPSIPDNALLIVDASQTTVDHGRIYVFSVGNAVLVKRANWRMDGRLDLISDNTAGKYPVETFDANRVEDLAVVGRVIFVGHPP”: “not soluble”; for “MSLSPPGVRLFYDPRGHHAGAINELCWGLEEQGVPCQTITYDGGGDAAALGALAARSSPLRVGIGLSASGEIALTHAQLPADAPLATGHVTDSDDQLRTLGANAGQLVKVLPLSERN”: “soluble”. As for “MSNEPESTQHKSALQGLKGYLSSQILGQEKLVDRLLIALLADGHLLVEGAPGLAKTKAIKDLAEGLEAEFHRIQFTPDLLPADITGTEIYRPETGTFVFQQGPIFHHLVLADEINRAPAKVQSALLEAMAERQVSVGRSTYDLPQLFLVMATQNPIEQEGTYPLPEAQLDRFLMHVKIGYPEASVERRILQQARGEALNGEARPERRVTQETIFAARQEILGLYMADAVEEYLVQLIMATRTPAKHDAELAEWISYGASPRGSIALDRCARAHAWLGGRDFVSPEDIQAVLFDVLRHRLILTFEAEAAGIDQDRVVQRILDVVAVALEHHHHHH”, the entry is “soluble”. As for “MAPTNLTKKPSQYKQSSRKGKKAWRKNIDLSDVEQYMEKKIDHEITHGTSDITSLQNDALFHVDVEGDEILKNKLIKRKQIKKVLKSKEILDAVKTNSKIAALNHHKNSSGNPNKIQGVSKHELKKLMALAGRVHGESKIKNRVAKDGLVKTTAGDLWGEESNSKKQKVKLPSGIKLDVEKKDQIPEELLKKSTTSWSTASVRPSTLDIEPIAVKEFTEIPHAGKSYNPNNKAWSELINKEYKEEKAREDERIALEKYKERIRHLMETLDDNEEEESSSNEEEEEEEEENENENESTQCSGSDKEIKLSINKPVKNKKKTKYQRNKAKRHEEKVKLQQELKELRQRVKDLEEVINSEETEILSAIESDSNKVKKSKKNKKHKLGTKYSVIDERLEIKFSDELSDSLRKLKPEGNLLYDTVRKLQSSGKVETRVPVRKGRKYKQKITEKWTHKDFK”, the entry is “not soluble”; as for “MAHHHHHHMKCFLIVDAQNDFLPTGSFNSRDDYMDTLNKINAIRLRLHNCTEKDLLKLSNCKHLMKYQPDKLLKENIVQYHQCNNDIDDDEREGDILIFPTDHRVMTCLSNRLSASNICSDLHKQTAQGTANGVERIPNNNNNGFSHTKEGTSHNGTHMHNHHPDESHQKNVETNDVETNNLARRNRSKESTNSENAKFALNILSVDYHPPCHISFAETHRILFEQIKRNKGTKNSSAEINIDRVTELSSHAQVNSSVASEEEAEGAHAEEAECDDEGTPSLDHTNEADGGEVQEPPQADLLQSAFLKKNKIFNLTDVMKNIQKIKSTRYIYKNVNSVSDIKEYSKLNFLNEWIDVWPIHCVRNTPGCKVHPNLIRHINDIVIKKADTENHDSHTIFENSEINQKILNLLKKQNIKSVYICGFIFEYCVKETALSFFNLGFDTYIVEDATAYLFGREEDKDNLKKKGIKFVNSSTMFA”, “not soluble”. “VTALDWRSALTADEQRSVRALVTATTAVDGVAPVGEQVLRELGQQRTEHLLVAGSRPGGPIIGYLNLSPPRGAGGAMAELVVHPQSRRRGIGTAMARAALAKTAGRNQFWAHGTLDPARATASALGLVGVRELIQMRRPLRDIPEPTIPDGVVIRTYAGTSDDAELLRVNNAAFAGHPEQGGWTAVQLAERRGEAWFDPDGLILAFGDSPRERPGRLLGFHWTKVHPDHPGLGEVYVLGVDPAAQRRGLGQMLTSIGIVSLARRLGGRKTLDPAVEPAVLLYVESDNVAAVRTYQSLGFTTYSVDTAYALAGTDN”: the “soluble on expression in E. coli” value is “not soluble”.

For the sequence “MGSDKIHHHHHHMTLPEPDFIARDPAVITAELIAQYEQMSGKTLYPAQVERLLIDLMAYRETLVRVGIQEAAKQNLVAYARAPMLDYLGQLVGVTRLPAQPARATLRFTLDAPLASPLPIPAGTRVESGDGVVAFATDEAATLPAGRTSLEIAATCQDAGSAGNGWQPGQIVNLMDDLGDMDVVVTNTAVTAGGVDEEDDERLRERIMLAPESFSNAGSRQAYRFHALRAHQSIVDVAVLSPTPGVVQLYPLLKTGLPDANMLALVQATCSAERVRPLTDYVEALAPTAIDYAIDVRLTVYPDVDGKAVKTQAQERLQAYAAERAGALGRDIVPSQIIAAVQVPGVYQATVASPGLQQVPEHGWARCTGVSVTLEGVSHG”, the “soluble on expression in E. coli” value is given as “not soluble”. The same measure for “MCSHYQALKDQERMRKYFAAHPSAEVPADMWPRYMGAFIRRPLEWDSGDEAVPEREAATGRWGMIPPGTRPEKLAEASKKNTSNARSETAHQLWTFRNAWAKAQHCIIPADAIYEPDWRSGKAVPTRFTRADGAPLGIAGLWDRYRNAAGEWIDSYTMLTINADDDPLFRDYHQAGKEKRMVVILPDGAYGDWLTAPATDTRDFLLPYPADRLVAAAVKLEHHHHHH”: “soluble”. Regarding “AHHHHHHGSVVKRTMTKKFLEEAFAGESMAHMRYLIFAEKAEQEGFPNIAKLFRAIAYAEFVHAKNHFIALGKLGKTPENLQMGIEGETFEVEEMYPVYNKAAEFQGEKEAVRTTHYALEAEKIHAELYRKAKEKAEKGEDIEIKKVYICPICGYTAVDEAPEYCPVCGAPKEKFVVFE”, the “soluble on expression in E. coli” value is given as “soluble”. The same measure for “MGHHHHHHSHMKPHFRNTVERMYRDTFSYNFYNRPILSRRNTVWLCYEVKTKGPSRPRLDAKIFRGQVPRSFIRAPFQVLSSPFGQCAPPHGTAQVQWPPQLTAGREQGRP”: “not soluble”.

For the origin of these results see the DeepSol protein solubility set.
